The text below walks through data of the supplement of paper PMC7877785.

± gives the uncertainty stated by the source.

A short description of the data set: self-splicing fitness, log relative to wild type (ln ratio); higher = more splicing; Tetrahymena group I intron in knt gene, E. coli kanamycin selection, DiMSum; sequences stand for … in CUCUCU…GGAGGGAAAAGUUAUCAGGCAUGCACCUGGUAGCUAGUCUUUAAACCAAUAGAUUGCAUCGGUUUAAAAGGCAAGACCGUCAAAUUGCGGGAAAGGGGUCAACAGCCGUUCAGUACCAAGUCUCAGGGGAAACUUUGAGAUGGCCUUGCAAAGGGUAUGGUAAUAAGCUGACGGACAUGGUCCUAACCACGCAGCCAAGUCCUAAGUCAACAGAUCUUCUGUUGAUAUGGAUGCAGUUCACAGACUAAAUGUCGGUCGGGGAAGAUGUAUUCUUCUCAUAAGAUAUAGUCGGACCUCUCCUUAAUGGGAGCUAGCGGAUGAAGUGAUGCAACACUGGAGCCGCUGGGAACUAAUUUGUAUGCGAAAGUAUAUUGAUUAGUUUUGGAGUACUCGUGGUCG
The procedure, abridged: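 Fitness was computed with DiMSum as the error-weighted combination of replicate fold changes, kanamycin versus none, each normalised to wild type. The library randomised all eight intron nucleotides of the P1ex region, with the intron placed in the knt kanamycin-resistance gene on pET-22b(+) in E. coli BL21(DE3). Six replicate transformations were grown overnight at 37°C or 30°C on LB agar with or without 25 μg/mL kanamycin, plus 100 μg/mL carbenicillin, 50 μM IPTG and 0.2% rhamnose. Pooled colonies were amplicon-sequenced on an Illumina HiSeq 2500.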

Take AUCAAGCAAUAUUACGUUAC: the “self-splicing fitness (ln)” value (30 °C) is -5.49 ± 0.45 and the “self-splicing fitness (ln)” value (37 °C) was -2.82 ± 0.27.
As for AAACAGCAAUAUUACGGUGU, the “self-splicing fitness (ln)” value is -2.42 ± 0.06 (30 °C) and -1.4 ± 0.071 (37 °C).
For AGUGAGCAAUAUUACGAGGA the same measures were -2.48 ± 0.32 and -3.09 ± 0.35.
Turning to GGACAGCAAUAUUACGGUGA, the “self-splicing fitness (ln)” value is -0.838 ± 0.063 (30 °C) and -0.167 ± 0.071 (37 °C).
The like results for UUCGAGCAAUAUUACGGGUA were, in that order, -1.16 ± 0.18 and -1.36 ± 0.15.
GGGCAGCAAUAUUACGUUUA: the “self-splicing fitness (ln)” value is -1.09 ± 0.069 (30 °C) and -0.227 ± 0.094 (37 °C).
Take GUGCAGCAAUAUUACGCAUC: the “self-splicing fitness (ln)” value (37 °C) was -3.79 ± 0.37.
Turning to GACCAGCAAUAUUACGGGCU, the “self-splicing fitness (ln)” value (30 °C) was -2.93 ± 0.14 and the “self-splicing fitness (ln)” value (37 °C) is -1.96 ± 0.14.
Take GACAAGCAAUAUUACGCUAG: the “self-splicing fitness (ln)” value runs as follows: (30 °C) -2.28 ± 0.081; (37 °C) -1.36 ± 0.089.
The like results for AAAGAGCAAUAUUACGGCGC were, in that order, -2.27 ± 0.2 and -0.545 ± 0.21.
Turning to UAGAAGCAAUAUUACGGCGC, the “self-splicing fitness (ln)” value reads like this: (30 °C) -1.94 ± 0.19; (37 °C) -0.275 ± 0.3.
For CUACAGCAAUAUUACGACGU the same measures were -4.63 ± 0.23 and -3.03 ± 0.2.
For GAAAAGCAAUAUUACGUAGA the same measures were -0.772 ± 0.076 and -1.77 ± 0.13.
Consider CCCCAGCAAUAUUACGUUGA, for which the “self-splicing fitness (ln)” value runs as follows: (30 °C) -4.14 ± 0.13; (37 °C) -2.79 ± 0.12.
For CCUCAGCAAUAUUACGACCA the same measures were -2.93 ± 0.34 and -1.99 ± 0.46.
As for CGUGAGCAAUAUUACGUAGC, the “self-splicing fitness (ln)” value by setting is: (30 °C) -1.15 ± 0.34; (37 °C) -1.28 ± 0.35.
For CGAUAGCAAUAUUACGGUUG the same measures were -1.9 ± 0.15 and -0.9 ± 0.13.
For CUUUAGCAAUAUUACGGUCA the same measures were -2.41 ± 0.25 and -3.28 ± 0.35.
Regarding CGGGAGCAAUAUUACGCGAG, the “self-splicing fitness (ln)” value (37 °C) is -2.93 ± 0.32.
As to CUCCAGCAAUAUUACGCAAC, the “self-splicing fitness (ln)” value is -3.98 ± 0.43 (30 °C) and -3.13 ± 0.42 (37 °C).
The like results for GCUCAGCAAUAUUACGUAUG were, in that order, -2.44 ± 0.076 and -1.62 ± 0.091.
For GGUCAGCAAUAUUACGGGAC the same measures were -1.72 ± 0.15 and -2.96 ± 0.4.
Consider CAACAGCAAUAUUACGCCAU, for which the “self-splicing fitness (ln)” value is -3.25 ± 0.11 (30 °C) and -2.94 ± 0.14 (37 °C).
For CGAAAGCAAUAUUACGACUC the same measures were -2.84 ± 0.14 and -1.63 ± 0.14.
The like results for AGGGAGCAAUAUUACGAACG were, in that order, -2.58 ± 0.39 and -1.9 ± 0.36.
In the case of CCUGAGCAAUAUUACGUGCC, the “self-splicing fitness (ln)” value (37 °C) is -1.6 ± 0.32.
CUAGAGCAAUAUUACGCUGA: the “self-splicing fitness (ln)” value is, setting by setting: (30 °C) -3.92 ± 0.23; (37 °C) -2.25 ± 0.23.
Regarding UAAAAGCAAUAUUACGAACG, the “self-splicing fitness (ln)” value (30 °C) was determined as 0.282 ± 0.1 and the “self-splicing fitness (ln)” value (37 °C) turned out to be 0.847 ± 0.12.
For AACGAGCAAUAUUACGGUUC the same measures were -2.87 ± 0.18 and -2.09 ± 0.19.
For AAGCAGCAAUAUUACGUUCG the same measures were -1.98 ± 0.089 and -0.509 ± 0.1.
With GUAAAGCAAUAUUACGGAGA, where the note is “30 °C”, the “self-splicing fitness (ln)” value was -3.54 ± 0.28.
As to CGAUAGCAAUAUUACGGUUA, the “self-splicing fitness (ln)” value by setting is: (30 °C) -0.777 ± 0.17; (37 °C) -0.253 ± 0.13.
The like results for GUUGAGCAAUAUUACGGGCC were, in that order, -3.53 ± 0.5 and -1.82 ± 0.39.
GAACAGCAAUAUUACGAGAC: the “self-splicing fitness (ln)” value by setting is: (30 °C) -2.13 ± 0.22; (37 °C) -1.21 ± 0.18.
Consider CACAAGCAAUAUUACGGAGA, for which the “self-splicing fitness (ln)” value by setting is: (30 °C) -3.31 ± 0.17; (37 °C) -2.65 ± 0.2.
Regarding CCUGAGCAAUAUUACGUACA, the “self-splicing fitness (ln)” value was -3.13 ± 0.33 (30 °C) and -0.722 ± 0.3 (37 °C).
GGUAAGCAAUAUUACGUCUG: the “self-splicing fitness (ln)” value is -1.85 ± 0.14 (30 °C) and -1.51 ± 0.1 (37 °C).
The like results for CAAUAGCAAUAUUACGUGCG were, in that order, -0.75 ± 0.072 and -0.0882 ± 0.08.
For UUUUAGCAAUAUUACGGACU, the “self-splicing fitness (ln)” value (30 °C) was -2.67 ± 0.39 and the “self-splicing fitness (ln)” value (37 °C) is -0.49 ± 0.35.
